Reference: patent publication CN1709911A

Key:
[1] = target: Raji肿瘤细胞核抗原 (Raji肿瘤细胞核提取物 / 固定Raji细胞); experiment: antigen binding activity, table 2; this molecule is the reference; method not described
[2] = target: Raji肿瘤细胞核抗原 (Raji肿瘤细胞核提取物 / 固定Raji细胞); experiment: flow cytometry on paraformaldehyde-fixed Raji cells; 5 ul of 1 mg/ml, anti-human IgG-FITC; first of three values
[3] = target: Raji肿瘤细胞核抗原 (Raji肿瘤细胞核提取物 / 固定Raji细胞); experiment: flow cytometry on paraformaldehyde-fixed Raji cells; 5 ul of 1 mg/ml, anti-human IgG-FITC; third of three values
[4] = target: Raji肿瘤细胞核抗原 (Raji肿瘤细胞核提取物 / 固定Raji细胞); experiment: flow cytometry on paraformaldehyde-fixed Raji cells; 5 ul of 1 mg/ml, anti-human IgG-FITC; second of three values
[5] = target: Raji肿瘤细胞核抗原 (Raji肿瘤细胞核提取物 / 固定Raji细胞); experiment: antigen binding activity, table 2, against rhTNT-IL2 (IgG1) as control; method not described

How did the 融合蛋白抗原结合活性 [1] turn out when “rhTNT-IL2融合蛋白 (重组人肿瘤坏死治疗单抗-白细胞介素2融合蛋白, IgG1, 连接肽AAAGGGS, 全长IL2) (antibody)” was run?
Its 融合蛋白抗原结合活性 is 100%.

And the 特异结合活性 [2]?
Its 特异结合活性 is 98.2%.

And the 特异结合活性 [3]?
Its 特异结合活性 is 98.6%.

And the 特异结合活性 [4]?
Its 特异结合活性 is 98.3%.

Which 融合蛋白抗原结合活性 [5] does the source give for “肿瘤坏死治疗单抗-白细胞介素2融合蛋白, IgG1重链恒定区, IL2(Q22-C58) (antibody)” here?
Its 融合蛋白抗原结合活性 is 100%.

How did the 融合蛋白抗原结合活性 [5] turn out when “肿瘤坏死治疗单抗-白细胞介素2融合蛋白, IgG2重链恒定区, IL2(Q22-C58) (antibody)” was run?
Its 融合蛋白抗原结合活性 is 100%.

How did the 融合蛋白抗原结合活性 [5] turn out when “肿瘤坏死治疗单抗-白细胞介素2融合蛋白, IgG2重链恒定区, 全长IL2 (antibody)” was run?
Its 融合蛋白抗原结合活性 is 100%.

Which 融合蛋白抗原结合活性 [5] does the source give for “肿瘤坏死治疗单抗-白细胞介素2融合蛋白, IgG3重链恒定区, IL2(Q22-C58) (antibody)” here?
Its 融合蛋白抗原结合活性 is 100%.

With “肿瘤坏死治疗单抗-白细胞介素2融合蛋白, IgG3重链恒定区, 全长IL2 (antibody)” as the substance, how does the 融合蛋白抗原结合活性 [5] read?
The 融合蛋白抗原结合活性 was 100%.

How did the 融合蛋白抗原结合活性 [5] turn out when “肿瘤坏死治疗单抗-白细胞介素2融合蛋白, IgG4重链恒定区, IL2(Q22-C58) (antibody)” was run?
The 融合蛋白抗原结合活性 was 100%.

“肿瘤坏死治疗单抗-白细胞介素2融合蛋白, IgG4重链恒定区, 全长IL2 (antibody)” was tested. Which 融合蛋白抗原结合活性 [5] did it give?
Its 融合蛋白抗原结合活性 is 100%.
